Several values for one entry are separate records, joined by “and”; a condition that tells them apart may be missing. Equal values may be shown once. Read-outs that look alike come from different tables or passages of the source.
Assays:
human Claudin18.2 [1] = molecular target: T1, human Claudin18.2 (human); test: FACS, Claudin18.2-HEK293 cells
T1 construct: also called CLDN18.2
Procedure: (§1) The binding of chimeric antibodies to Claudin18.2 expressed on HEK293 cells was determine by FACS analysis. Briefly, HEK293 cells expressing human Claudin18.2 as prepared in the foregoing Example were harvested and incubated with anti-Claudin18.2 mAbs at 4° C. for 40 min, followed by fluorophore (iFluor 647)-labeled goat […] IgG (H+L) secondary antibodies at 4° C. for 0.5 hour. The samples were then analyzed by flow cytometry.

human Claudin18.2 [2] = molecular target: T1, human Claudin18.2; test: FACS, Claudin18.2-HEK293 cells; remark: listed apart in the source
Procedure: as §1

human Claudin18.2 [3] = molecular target: T1, human Claudin18.2; test: cell-based or functional assay

- EC50 (human Claudin18.2 [1]): 0.517 nM
- EC50 (human Claudin18.2 [2]): 0.596 nM
- CDC EC50 (human Claudin18.2 [3]): 2.7 µg/mL and 2.3 µg/mL and 2.12 µg/mL
B1: IMAB362 analog (Claudiximab, Zolbetuximab) (antibody, V domains shown)
VH: QVQLQQPGAELVRPGASVKLSCKASGYTFTSYWINWVKQRPGQGLEWIGNIYPSDSYTNYNQKFKDKATLTVDKSSSTAYMQLSSPTSEDSAVYYCTRSWRGNSFDYWGQGTTLTVSS
VL: DIVMTQSPSSLTVTAGEKVTMSCKSSQSLLNSGNQKNYLTWYQQKPGQPPKLLIYWASTRESGVPDRFTGSGSGTDFTLTISSVQAEDLAVYYCQNDYSYPFTFGSGTKLEIK
notes: in-house prepared analog; chimeric IgG1
